Measurements taken from PMC9652321, “Structural basis of human SNAPc recognizing proximal sequence element of snRNA promoter”.
Changes are numbered by the printed parent chain.

Key:
mSNAPc#2 SNAP190-R445A = biological target: T1, mSNAPc#2 SNAP190-R445A (Homo sapiens, UniProt Q5SXM2;Q92966;Q16533;O75971 1-505;1-411;1-268;1-98, R445A); experiment: SPR; EMSA: 100 mM KCl, 25 mM HEPES-K pH 7.6, 12.5 mM MgCl2, 10 uM ZnCl2, 0.1 mM EDTA, 10% glycerol, 3 mM DTT, 0.5 mM PMSF, 50 nM DNA, RT 30 min; SPR: 100 mM KCl, 12.5 mM MgCl2, 10 uM ZnCl2, 0.1 mM EDTA, 0.05% P20, 25 C; details: protein: recombinant; tags: as P1; copies: 1;1;1;1
T1 sequence 1: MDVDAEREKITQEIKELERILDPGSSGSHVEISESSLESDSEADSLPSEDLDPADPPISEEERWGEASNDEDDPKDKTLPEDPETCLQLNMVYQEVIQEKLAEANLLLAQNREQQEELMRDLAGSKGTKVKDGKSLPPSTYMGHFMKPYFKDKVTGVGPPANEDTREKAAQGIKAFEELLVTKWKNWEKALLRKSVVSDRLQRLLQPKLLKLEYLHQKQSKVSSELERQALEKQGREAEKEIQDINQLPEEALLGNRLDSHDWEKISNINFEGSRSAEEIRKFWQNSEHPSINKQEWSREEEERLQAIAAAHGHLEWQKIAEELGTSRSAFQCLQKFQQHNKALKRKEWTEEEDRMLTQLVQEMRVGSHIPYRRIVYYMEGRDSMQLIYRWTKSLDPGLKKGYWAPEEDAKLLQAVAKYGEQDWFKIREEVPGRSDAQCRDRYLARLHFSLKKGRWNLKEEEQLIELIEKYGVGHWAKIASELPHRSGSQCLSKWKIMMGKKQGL
T1 sequence 2: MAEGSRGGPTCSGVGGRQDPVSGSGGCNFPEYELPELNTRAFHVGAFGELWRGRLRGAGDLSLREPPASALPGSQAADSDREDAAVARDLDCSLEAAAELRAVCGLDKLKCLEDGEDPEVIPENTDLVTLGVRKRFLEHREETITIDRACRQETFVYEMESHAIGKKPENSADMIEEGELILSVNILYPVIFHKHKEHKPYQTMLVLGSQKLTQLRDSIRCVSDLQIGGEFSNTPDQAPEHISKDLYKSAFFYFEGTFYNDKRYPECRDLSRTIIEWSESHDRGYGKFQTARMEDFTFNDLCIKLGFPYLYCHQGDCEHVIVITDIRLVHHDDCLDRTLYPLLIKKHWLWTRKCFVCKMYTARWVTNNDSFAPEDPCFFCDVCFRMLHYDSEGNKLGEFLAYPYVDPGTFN
T1 sequence 3: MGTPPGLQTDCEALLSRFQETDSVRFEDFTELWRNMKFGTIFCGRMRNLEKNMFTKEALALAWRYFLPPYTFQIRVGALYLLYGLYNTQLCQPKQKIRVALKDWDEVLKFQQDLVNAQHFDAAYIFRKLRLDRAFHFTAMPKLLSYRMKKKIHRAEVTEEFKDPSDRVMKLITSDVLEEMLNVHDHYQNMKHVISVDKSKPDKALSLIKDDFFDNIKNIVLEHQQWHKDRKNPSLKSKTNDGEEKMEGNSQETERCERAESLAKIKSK
T1 sequence 4: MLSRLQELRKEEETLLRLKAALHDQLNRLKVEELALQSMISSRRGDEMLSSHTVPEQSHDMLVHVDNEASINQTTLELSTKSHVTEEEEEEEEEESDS

mSNAPc#2 SNAP190-Y389A = biological target: T2, mSNAPc#2 SNAP190-Y389A (Homo sapiens, UniProt Q5SXM2;Q92966;Q16533;O75971 1-505;1-411;1-268;1-98, Y389A); experiment: as above; details: protein: recombinant; tags: as P1; copies: 1;1;1;1
T2 sequence 1: T1 sequence 1 with Y389A, A445R
T2 sequence 2: T1 sequence 2
T2 sequence 3: T1 sequence 3
T2 sequence 4: T1 sequence 4

mSNAPc#2 WT = biological target: T3, mSNAPc#2 WT (Homo sapiens, UniProt Q5SXM2;Q92966;Q16533;O75971 1-505;1-411;1-268;1-98); experiment: SPR; protein immobilized; EMSA: 100 mM KCl, 25 mM HEPES-K pH 7.6, 12.5 mM MgCl2, 10 uM ZnCl2, 0.1 mM EDTA, 10% glycerol, 3 mM DTT, 0.5 mM PMSF, 50 nM DNA, RT 30 min; SPR: 100 mM KCl, 12.5 mM MgCl2, 10 uM ZnCl2, 0.1 mM EDTA, 0.05% P20, 25 C; details: protein: recombinant; tags: FLAG N-term SNAP190; 6xHis N-term SNAP43; copies: 1;1;1;1
T3 sequence 1: T1 sequence 1 with A445R
T3 sequence 2: T1 sequence 2
T3 sequence 3: T1 sequence 3
T3 sequence 4: T1 sequence 4

B1: 25 bp hU6-1 PSE (SPR) (dsDNA)
DNA 1: TGCTTACCGTAACTTGAAAGTATTT
DNA 2: AAATACTTTCAAGTTACGGTAAGCA
Question: For B1, which Kd (mSNAPc#2 SNAP190-R445A) is on record?
Answer: 603 nM

Question: What about the Kd (mSNAPc#2 SNAP190-Y389A) of the same binder?
Answer: 1080 nM

Question: What about the Kd (mSNAPc#2 WT) of the same binder?
Answer: 289 nM
